From PMC9482650, “Quantitative fragmentomics allow affinity mapping of interactomes” (Nature Communications, 2022)

How the values were obtained:
Assay in all cases: holdup assay
Design in all cases: key: below the threshold = too weak to quantify, mostly under pKd 3.1 to 4
[1] = molecular target: T1, GRIP1_4, Q9Y3R0
T1 sequence (Q9Y3R0 467-571, limits assumed, looked up): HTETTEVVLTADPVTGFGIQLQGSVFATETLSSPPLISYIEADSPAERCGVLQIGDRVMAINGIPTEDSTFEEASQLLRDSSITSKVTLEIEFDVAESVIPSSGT

[2] = molecular target: T2, PTPN13_1, Q12923
T2 sequence (Q12923 1088-1188, limits assumed, looked up): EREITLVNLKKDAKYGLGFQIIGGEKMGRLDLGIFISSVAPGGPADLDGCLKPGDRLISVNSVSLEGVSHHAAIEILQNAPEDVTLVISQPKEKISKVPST

[3] = molecular target: T3, SYNJ2BP, P57105
T3 sequence (P57105 8-110, limits assumed, looked up): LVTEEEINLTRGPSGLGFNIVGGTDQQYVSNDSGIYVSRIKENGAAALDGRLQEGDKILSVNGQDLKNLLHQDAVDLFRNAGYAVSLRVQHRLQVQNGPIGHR

[4] = molecular target: GORASP2, Q9H8Y8
[5] = molecular target: T4, GRIP1_2, Q9Y3R0
T4 sequence (Q9Y3R0 145-248, limits assumed, looked up): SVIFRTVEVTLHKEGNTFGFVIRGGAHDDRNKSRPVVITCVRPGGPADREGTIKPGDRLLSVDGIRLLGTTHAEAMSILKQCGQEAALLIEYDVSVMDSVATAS

[6] = molecular target: TJP1_3, Q07157
[7] = molecular target: Inadl_5, Q8NI35
[8] = molecular target: DLG1_3, Q12959
[9] = molecular target: NHERF4_4, Q86UT5
[10] = molecular target: LAP2, Q96RT1
[11] = molecular target: T5, DLG3_1, Q92796
T5 sequence (Q92796 125-227, limits assumed, looked up): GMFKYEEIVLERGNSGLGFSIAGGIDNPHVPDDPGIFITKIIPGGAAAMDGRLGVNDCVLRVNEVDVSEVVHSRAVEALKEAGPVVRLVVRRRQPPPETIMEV

[12] = molecular target: T6, DLG3_2, Q92796
T6 sequence (Q92796 221-321, limits assumed, looked up): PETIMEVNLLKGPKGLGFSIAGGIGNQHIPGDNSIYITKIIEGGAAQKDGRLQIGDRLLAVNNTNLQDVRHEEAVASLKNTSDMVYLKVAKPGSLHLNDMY

[13] = molecular target: T7, LIN7B, Q9HAP6
T7 sequence (Q9HAP6 88-185, limits assumed, looked up): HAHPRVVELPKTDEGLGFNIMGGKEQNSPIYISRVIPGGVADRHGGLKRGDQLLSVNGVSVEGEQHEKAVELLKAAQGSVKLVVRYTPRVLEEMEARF

[14] = molecular target: TJP2_1, Q9UDY2
[15] = molecular target: DLG4_1, P78352
[16] = molecular target: Inadl_10, Q8NI35
[17] = molecular target: T8, MPDZ_10, O75970
T8 sequence (O75970 1624-1722, limits assumed, looked up): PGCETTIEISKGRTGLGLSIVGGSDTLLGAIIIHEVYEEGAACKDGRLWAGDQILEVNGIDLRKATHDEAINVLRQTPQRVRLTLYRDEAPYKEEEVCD

[18] = molecular target: Inadl_9, Q8NI35
[19] = molecular target: HTRA1, Q92743
[20] = molecular target: T9, PARD3B_1, Q8TEW8
T9 sequence (Q8TEW8 196-299, limits assumed, looked up): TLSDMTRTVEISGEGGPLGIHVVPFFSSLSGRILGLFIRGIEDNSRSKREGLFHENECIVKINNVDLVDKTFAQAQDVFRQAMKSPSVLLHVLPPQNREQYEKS

[21] = molecular target: T10, HTRA3, P83110
T10 sequence (P83110 354-453, limits assumed, looked up): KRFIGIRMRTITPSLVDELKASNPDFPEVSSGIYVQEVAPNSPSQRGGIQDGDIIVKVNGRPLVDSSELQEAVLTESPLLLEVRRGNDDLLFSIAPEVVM

[22] = molecular target: T11, RHPN1, Q8TCX5
T11 sequence (Q8TCX5 508-602, limits assumed, looked up): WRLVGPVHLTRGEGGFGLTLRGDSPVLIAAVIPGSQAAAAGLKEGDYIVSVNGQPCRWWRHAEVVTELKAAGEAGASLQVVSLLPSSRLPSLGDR

[23] = molecular target: IL16_1, Q14005
[24] = molecular target: T12, DFNB31_1, Q9P202
T12 sequence (Q9P202 135-233, limits assumed, looked up): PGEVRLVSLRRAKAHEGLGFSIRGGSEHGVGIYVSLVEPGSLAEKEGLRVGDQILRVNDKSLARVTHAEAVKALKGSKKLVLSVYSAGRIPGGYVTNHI

[25] = molecular target: NOS1, P29475
[26] = plain residues with an end cap or a label only (N-terminal biotin on a linker: ado-ado)
[27] = modified: phospho on T at position -2 from the C-terminal residue

Sequence of NOS1, P29475 (P29475 9-101): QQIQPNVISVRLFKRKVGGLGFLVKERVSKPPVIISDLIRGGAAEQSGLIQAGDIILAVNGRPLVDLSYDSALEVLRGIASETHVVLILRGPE
Sequence of Inadl_10, Q8NI35 (Q8NI35 1673-1763): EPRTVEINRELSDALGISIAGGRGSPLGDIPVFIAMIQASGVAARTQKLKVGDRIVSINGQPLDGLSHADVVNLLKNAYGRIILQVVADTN
Sequence of TJP1_3, Q07157 (Q07157 416-512): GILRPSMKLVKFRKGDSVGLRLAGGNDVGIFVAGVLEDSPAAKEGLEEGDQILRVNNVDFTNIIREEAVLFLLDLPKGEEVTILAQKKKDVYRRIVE
Sequence of Inadl_9, Q8NI35 (Q8NI35 1530-1615): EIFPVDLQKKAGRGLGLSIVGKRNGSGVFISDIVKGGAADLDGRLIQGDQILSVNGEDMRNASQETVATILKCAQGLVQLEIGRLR
Sequence of LAP2, Q96RT1 (Q96RT1 other isoform, or with tags, fused parts or gaps): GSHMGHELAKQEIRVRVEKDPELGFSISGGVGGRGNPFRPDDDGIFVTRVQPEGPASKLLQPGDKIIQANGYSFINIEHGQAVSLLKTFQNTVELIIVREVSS
Sequence of Inadl_5, Q8NI35 (Q8NI35 673-780): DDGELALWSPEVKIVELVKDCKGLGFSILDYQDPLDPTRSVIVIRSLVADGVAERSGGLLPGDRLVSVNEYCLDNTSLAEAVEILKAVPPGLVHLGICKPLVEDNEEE
Sequence of HTRA1, Q92743 (Q92743 360-477): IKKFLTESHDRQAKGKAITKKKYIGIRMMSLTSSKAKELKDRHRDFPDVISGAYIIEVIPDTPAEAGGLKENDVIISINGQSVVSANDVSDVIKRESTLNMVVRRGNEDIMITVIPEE
Sequence of TJP2_1, Q9UDY2 (Q9UDY2 24-128): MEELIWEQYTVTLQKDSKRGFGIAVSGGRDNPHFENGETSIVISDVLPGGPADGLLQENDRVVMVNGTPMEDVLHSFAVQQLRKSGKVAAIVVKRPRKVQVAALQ
Sequence of DLG1_3, Q12959 (Q12959 457-571): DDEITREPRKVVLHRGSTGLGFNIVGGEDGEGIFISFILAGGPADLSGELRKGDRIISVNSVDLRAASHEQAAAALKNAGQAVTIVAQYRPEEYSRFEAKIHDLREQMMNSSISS
Sequence of NHERF4_4, Q86UT5 (Q86UT5 464-550): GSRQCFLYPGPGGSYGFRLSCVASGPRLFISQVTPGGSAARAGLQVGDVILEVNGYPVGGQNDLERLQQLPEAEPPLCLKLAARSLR
Sequence of IL16_1, Q14005 (Q14005 210-306): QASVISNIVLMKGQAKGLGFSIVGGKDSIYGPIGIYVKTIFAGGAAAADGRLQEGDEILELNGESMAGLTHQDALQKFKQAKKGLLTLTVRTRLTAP
Sequence of DLG4_1, P78352 (P78352 62-152): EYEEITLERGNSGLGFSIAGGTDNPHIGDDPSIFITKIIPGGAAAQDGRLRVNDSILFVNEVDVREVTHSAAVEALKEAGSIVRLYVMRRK

B1: LPXN, O60711 (peptide)
chain: QPCFNKLFPL
Question: What does the source list for B1?
Answer: pKd [1, 26]: below the threshold; pKd [2, 26]: below the threshold; pKd [3, 26]: below the threshold; pKd [4, 26]: 4; pKd [5, 26]: below the threshold; pKd [6, 26]: below the threshold; pKd [7, 26]: below the threshold; pKd [8, 26]: below the threshold; pKd [9, 26]: below the threshold; pKd [10, 26]: below the threshold; pKd [11, 26]: below the threshold; pKd [12, 26]: below the threshold; pKd [13, 26]: below the threshold; pKd [14, 26]: below the threshold; pKd [15, 26]: below the threshold; pKd [16, 26]: below the threshold; pKd [17, 26]: below the threshold; pKd [18, 26]: below the threshold; pKd [19, 26]: below the threshold; pKd [20, 26]: 3.75; pKd [21, 26]: below the threshold; pKd [22, 26]: below the threshold; pKd [23, 26]: below the threshold; pKd [24, 26]: below the threshold; pKd [25, 26]: 3.5

B2: CCDC134, Q9H6E4 (peptide)
chain: PRISRSQSEL
Question: B2 was tested. Which pKd [1, 26] did it give?
Answer: below the threshold

Question: What about the pKd [2, 26] of the same binder?
Answer: below the threshold

Question: What about the pKd [3, 26] of the same binder?
Answer: 4.09

Question: What about the pKd [4, 26] of the same binder?
Answer: below the threshold

Question: And the pKd [5, 26]?
Answer: below the threshold

Question: What about the pKd [6, 26] of the same binder?
Answer: below the threshold

Question: And the pKd [7, 26]?
Answer: below the threshold

Question: What about the pKd [8, 26] of the same binder?
Answer: below the threshold

Question: What about the pKd [9, 26] of the same binder?
Answer: below the threshold

Question: What about the pKd [10, 26] of the same binder?
Answer: below the threshold

Question: What about the pKd [11, 26] of the same binder?
Answer: below the threshold

Question: What about the pKd [12, 26] of the same binder?
Answer: 3.98

Question: What about the pKd [13, 26] of the same binder?
Answer: 3.62

Question: What about the pKd [14, 26] of the same binder?
Answer: below the threshold

Question: What about the pKd [15, 26] of the same binder?
Answer: below the threshold

Question: And the pKd [16, 26]?
Answer: below the threshold

Question: What about the pKd [17, 26] of the same binder?
Answer: below the threshold

Question: What about the pKd [18, 26] of the same binder?
Answer: below the threshold

Question: What about the pKd [19, 26] of the same binder?
Answer: below the threshold

Question: And the pKd [20, 26]?
Answer: below the threshold

Question: And the pKd [21, 26]?
Answer: below the threshold

Question: And the pKd [22, 26]?
Answer: below the threshold

Question: And the pKd [23, 26]?
Answer: below the threshold

Question: What about the pKd [24, 26] of the same binder?
Answer: below the threshold

Question: And the pKd [25, 26]?
Answer: below the threshold

B3: PRKD2, Q9BZL6 (peptide)
chain: QGLAERISVL
Question: What does the source list for B3?
Answer: pKd [1, 26]: below the threshold; pKd [2, 26]: below the threshold; pKd [3, 26]: below the threshold; pKd [4, 26]: 4.16; pKd [5, 26]: below the threshold; pKd [6, 26]: below the threshold; pKd [7, 26]: below the threshold; pKd [8, 26]: below the threshold; pKd [9, 26]: 3.97; pKd [10, 26]: below the threshold; pKd [11, 26]: below the threshold; pKd [12, 26]: below the threshold; pKd [13, 26]: below the threshold; pKd [14, 26]: below the threshold; pKd [15, 26]: below the threshold; pKd [16, 26]: below the threshold; pKd [17, 26]: 3.76; pKd [18, 26]: below the threshold; pKd [19, 26]: 4.77; pKd [20, 26]: 4.47; pKd [21, 26]: below the threshold; pKd [22, 26]: 4.62; pKd [23, 26]: 4.16; pKd [24, 26]: below the threshold; pKd [25, 26]: 3.88

B4: NLGN2, Q8NFZ4 (peptide)
chain: LPHPHSTTRV
Question: B4 was tested. Which pKd [1, 26] did it give?
Answer: below the threshold

Question: What about the pKd [2, 26] of the same binder?
Answer: below the threshold

Question: What about the pKd [3, 26] of the same binder?
Answer: 3.84

Question: What about the pKd [4, 26] of the same binder?
Answer: 3.92

Question: What about the pKd [5, 26] of the same binder?
Answer: below the threshold

Question: And the pKd [6, 26]?
Answer: below the threshold

Question: What about the pKd [7, 26] of the same binder?
Answer: below the threshold

Question: And the pKd [8, 26]?
Answer: 4.13

Question: And the pKd [9, 26]?
Answer: below the threshold

Question: What about the pKd [10, 26] of the same binder?
Answer: below the threshold

Question: And the pKd [11, 26]?
Answer: below the threshold

Question: What about the pKd [12, 26] of the same binder?
Answer: 3.96

Question: What about the pKd [13, 26] of the same binder?
Answer: 3.58

Question: What about the pKd [14, 26] of the same binder?
Answer: 3.97

Question: And the pKd [15, 26]?
Answer: below the threshold

Question: What about the pKd [16, 26] of the same binder?
Answer: below the threshold

Question: And the pKd [17, 26]?
Answer: 3.62

Question: And the pKd [18, 26]?
Answer: below the threshold

Question: What about the pKd [19, 26] of the same binder?
Answer: 3.6

Question: What about the pKd [20, 26] of the same binder?
Answer: below the threshold

Question: And the pKd [21, 26]?
Answer: below the threshold

Question: And the pKd [22, 26]?
Answer: 3.83

Question: And the pKd [23, 26]?
Answer: below the threshold

Question: What about the pKd [24, 26] of the same binder?
Answer: 4.13

Question: What about the pKd [25, 26] of the same binder?
Answer: 3.63

B5: HPV18-E6_-2P, P06463 (peptide)
chain: RLQRRRETQV
Question: How did the pKd [1, 27] turn out when B5 was run?
Answer: below the threshold

Question: What about the pKd [2, 27] of the same binder?
Answer: below the threshold

Question: What about the pKd [3, 27] of the same binder?
Answer: below the threshold

Question: What about the pKd [4, 27] of the same binder?
Answer: 4.13

Question: And the pKd [5, 27]?
Answer: below the threshold

Question: What about the pKd [6, 27] of the same binder?
Answer: below the threshold

Question: What about the pKd [7, 27] of the same binder?
Answer: below the threshold

Question: What about the pKd [8, 27] of the same binder?
Answer: below the threshold

Question: And the pKd [9, 27]?
Answer: below the threshold

Question: And the pKd [10, 27]?
Answer: below the threshold

Question: And the pKd [11, 27]?
Answer: below the threshold

Question: And the pKd [12, 27]?
Answer: below the threshold

Question: What about the pKd [13, 27] of the same binder?
Answer: below the threshold

Question: What about the pKd [14, 27] of the same binder?
Answer: below the threshold

Question: What about the pKd [15, 27] of the same binder?
Answer: below the threshold

Question: And the pKd [16, 27]?
Answer: below the threshold

Question: And the pKd [17, 27]?
Answer: below the threshold

Question: And the pKd [18, 27]?
Answer: below the threshold

Question: And the pKd [19, 27]?
Answer: below the threshold

Question: What about the pKd [20, 27] of the same binder?
Answer: below the threshold

Question: And the pKd [21, 27]?
Answer: below the threshold

Question: And the pKd [22, 27]?
Answer: below the threshold

Question: And the pKd [23, 27]?
Answer: below the threshold

Question: And the pKd [24, 27]?
Answer: below the threshold

Question: And the pKd [25, 27]?
Answer: 3.75
